Data as given in the supplement of paper PMC9170038.

The sequences below were run on MS2 coat protein (assay: apparent KD of MS2 coat protein; higher = weaker reporter binding). Settings: Eterna round: R107; input ligand: none.
Procedure, shortened: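 The buffer was 100 mM Tris-HCl pH 7.5 with 80 mM KCl and 4 mM MgCl2, used without or with constant ligand. In it, RNA switches transcribed on-chip from Illumina sequencing clusters were titrated with SNAP-549-labelled MS2 coat protein in twofold steps from 0.7 or 1.5 nM to 3 µM. Apparent KD for each design is the median of its normalised cluster binding-curve fits.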

How did the “apparent KD of MS2 coat protein” value turn out when “AACAACAAGGGAAGGAGCGCGAAUAAUAGACAUGAGGAUCACCCAUGUAUCAUGGGAUUAACGCAGGUAGGUCGCCCACAAACAA [#07 Exclusion - Arginine B]” was run?
The value was 127 nM.

With “UGUAUGGACUGAAGGAGCGGGUUGAUAACUUGAGGAUCACCCAGGUAAAAGGCGAAAGCCGCCCAGGUAGGUCGCAGUCCAUACU” as the sequence, how does the “apparent KD of MS2 coat protein” value read?
The value was 45.6 nM.

How did the “apparent KD of MS2 coat protein” value turn out when “GACCUUAUCUGAAGGAGCGAGGUAAAUAGGGAUGAGCAUACAUGAGGAUCACCCAUGUGGCCUCAGGUAGGUCGCAGAUGAGAUU [Exclusion Arginine B GF27]” was run?
Its value is 113 nM.

How did the “apparent KD of MS2 coat protein” value turn out when “CGUAUUACGAAAGUAGUACGUAGUGUUCGACGAGGACCGGUACGGCCGCCACUCGGACAUGAGGAUCACCCAUGUAGCGAAAGCU [Tryptophan A 24]” was run?
Its value is 255 nM.

“UCGCUCGCCGAAAGGCGAGCGAGUUGCGAUACCAGCCCGGAAACGGGCCCUUGGCAGCGCACAUGAGGAUCACCCAUGUCAUGUU [#1 Exclusion - Theophylline A Attempt #3 (HarryS)]” was tested. Which “apparent KD of MS2 coat protein” value did it give?
Its value is 19.4 nM.

“CCAUGCAGGUCGGCCGCCACUACACACAUGAGGAUCACCCAUGUAGUUACUGGGUGAAGUGGCAGUAGGACCGGGACCUGCAUAU [Brourdmod11]” was tested. Which “apparent KD of MS2 coat protein” value did it give?
Its value is 284 nM.

“AAUUUAAACGGAAGGAGCGUCACUUAAUAUCAACAUGAGGAUCACCCAUGUACGGGUUGUAGACAGGUAGGUCGCCGUCAUUUGA [#15 Same State - Arginine B]” was tested. Which “apparent KD of MS2 coat protein” value did it give?
The value was 47.9 nM.

“GACCUUAUCUGAAGGAGCGAGGUAAAUAGGGUUGAGCAUACAUGAGGAUCACCCAUGUGGCCUCAGGUAGGUCGCAGAUAAGACA [Exclusion Arginine B GF29]” was tested. Which “apparent KD of MS2 coat protein” value did it give?
The value was 352 nM.

“AAAGGUCGCAAUAAAUCUCCUACAUGUGAAGGAGCGCGCGAAAGCGCAGGUAGGUCGCACAUGAGGAUCACCCAUGUGAGCGACC [MAT - Exclusion Arginine A - Mod of Eli - D3]” was tested. Which “apparent KD of MS2 coat protein” value did it give?
The value was 11.5 nM.

For “AAUAACUUGAGGAUCACCCAAGUAAAAGAUACCAGAGUGAUGAUCCUCCCUUGGCAGCUUAACGCUGAUUGAUUACAAUCAGCGA”, which “apparent KD of MS2 coat protein” value is on record?
The value was 62.3 nM.

How did the “apparent KD of MS2 coat protein” value turn out when “UAUAUAGAAGGAUGUCAUAUAGAUGCAGAAGGAGCGUAGGAAACUACAGGUAGGUCGCUGAGGUACAUGAGGAUCACCCAUGUAG [SSArg A #17 Slice of Pi]” was run?
Its value is 33.1 nM.

How did the “apparent KD of MS2 coat protein” value turn out when “CCUAUGCAGUCGGCCGCCACUGAAAUAAAUUAUAUUACCUCAGAAACAUGAGGAUCACCCAUGUACAGGACCGGGACUGUAUAGG [Ex Tryptophan B 15]” was run?
Its value is 35.3 nM.

Which “apparent KD of MS2 coat protein” value does the source give for “UCCUCCUCCGCAAGGAGGAGGAGUUGCGAUACCAGCACGGUAACGUGCCCUUGGCAGCGCACAUGAGGAUCACCCAUGUGGUGUU [#1 Exclusion - Theophylline A Attempt #12 (HarryS)]” here?
Its value is 228 nM.

Which “apparent KD of MS2 coat protein” value does the source give for “AGUACAUGAGGAUCACCCAUGUACCAUGAUACCAGACAUGAAAAUGUCCCUUGGCAGCGUGGGUGAGGCAUCCGAAAGGAUGCCC [#05 SameState-TheophyllineA]” here?
The value was 223 nM.

How did the “apparent KD of MS2 coat protein” value turn out when “GCCUAGCAUCGAAGGAGCGCUGGUGAAACUGACUAAUAUACAUGAGGAUCACCCAUGUGCUAGCAGGUAGGUCGCGAUGCUAGGC [SSAB NP+V+V2 #11]” was run?
The value was 21.7 nM.

With “CGAAAGCACAUGGGUUGCUUUCGACUGGAAGGAGCGAGCGAAAGCUCAGGUAGGUCGCCAGAAACAUGAGGAUCACCCAUGUAAU [(A)''-(M)'-(A)'(Arg1)-(Arg2)-(M1)-(M2)_Design10]” as the sequence, how does the “apparent KD of MS2 coat protein” value read?
Its value is 18.3 nM.

For “UAGACGGCCGGAAGGAGCGGUACAUGAGGAUCACCCAUGUAUCCCUGGGCAUCCGUAGUGUGCCAGGUAGGUCGCCGGUUGCGGG [XArg-B21]”, which “apparent KD of MS2 coat protein” value is on record?
Its value is 15.5 nM.

For “CACAUGAGGAUCACCCAUGUCUGAACUGAAGGAGCGCUAAACAAGGCAGGUAGGUCGCGGAAUCCCGGGUGCAUAUGCACCCGGG [9.aA]”, which “apparent KD of MS2 coat protein” value is on record?
The value was 23.9 nM.

Which “apparent KD of MS2 coat protein” value does the source give for “UGUAUAUACGGAAGGAGCGUGUAAGAUUAAGAACAUGAGGAUCACCCAUGUUUUAAGGGAACACAGGUAGGUCGCCGUAUAUAUG [11.O]” here?
Its value is 12.4 nM.

How did the “apparent KD of MS2 coat protein” value turn out when “AGUCUUAAAGGAAGGAGCGCAAUCAUAACAUGAGGAUCACCCAUGUCGAGGUGAGGGUCAUUGCAGGUAGGUCGCCUUACUAAGA [Same State - Arginine B (Freestyle 7)]” was run?
The value was 79.6 nM.

“CCUAUGCAGUCGGCCGCCACUGAACAUGAGGAUCACCCAUGUUUUUAUAAAUAUGGUCCUAUAAUCAGGACCGGGACUGUAUAGG [Ex Tryptophan B 9]” was tested. Which “apparent KD of MS2 coat protein” value did it give?
The value was 69.2 nM.

Same assay, conditions: Eterna round: R107; input ligand: theophylline 20 uM

“GACUAUAUGAUAUGUCAGAAAUCCUCGAAACGAGGACCGGUACGGCCGCCACUCGAGUGAUAAACAUGAGGAUCACCCAUGUAAA [Tryp A Ex t2]” was tested. Which “apparent KD of MS2 coat protein” value did it give?
The value was 28 nM.

Which “apparent KD of MS2 coat protein” value does the source give for “UGAGUUAGACAAAAGUCUAGCUCUGGUGAAGGAGCGUCCGAAAGGACAGGUAGGUCGCACCACCUGAGGAUCACCCGGGUUCCUA [ArgAS 13 #OpenEnded #AlternativeMS2]” here?
The value was 544 nM.

Which “apparent KD of MS2 coat protein” value does the source give for “AUAAUGAGUGGUGGAUAGGUGAUCCUCUUACGAGGACCGGUACGGCCGCCACUCGAUAACAUGAGGAUCACCCAUGUAAUAAUAA [|T'-M'-Trp-Ms2|_Design19]” here?
Its value is 22.6 nM.

How did the “apparent KD of MS2 coat protein” value turn out when “GAUGAUAUUGCAGAUACCAGACACAUGAGGAUCACCCAUGUCUCUGUGAUGUAGGAUUGUGUCCCUUGGCAGCUGCGAUAUCAUC [Chile]” was run?
Its value is 258 nM.

How did the “apparent KD of MS2 coat protein” value turn out when “AGCACUGUGACGGCCGCCACUACAUAAAUAGGGUGGUCAGGUUCAUUACAUGAGGAUCACCCAUGUAGGACCGGGUCUCAGUGCA [Omei Trp Exc B A v7]” was run?
The value was 11.9 nM.

For “CAAACAUGAGGAUCACCCAUGUAAUCAGAUACCAGUGACGAAAGUCACCCUUGGCAGCUGAGUACAUUAGUUCUAAGGUGUUUGA [EThA NP+V+V2 #6 +-Same Structure]”, which “apparent KD of MS2 coat protein” value is on record?
The value was 61 nM.

Which “apparent KD of MS2 coat protein” value does the source give for “GGUGGCGUGACGGAUACCAGCCACCGCCGCAAGGCCACAUGAGGAUCACCCAUGUUGGGUGGCCCUUGGCAGCUGUCGUGCGGCG [#1 Same State - Theophylline B Attempt #21 (HarryS)]” here?
Its value is 464 nM.

Which “apparent KD of MS2 coat protein” value does the source give for “ACACGAAGCUGAAGGAGCGUGGUAUAAAUUUUUACAUGAGGAUCACCCAUGUUUCAUCAAUCACAGGUAGGUCGCAGAUGCGUGA [JR_SSArginiB_Sub014]” here?
Its value is 18.6 nM.

“AAACGUUGCUCAGAUACCAGACAUGAGGAUCACCCAUGUACCAAGGUAAAGAAAUAACGUGUCCCUUGGCAGCUGAGCAACGAAA [MAT - Exclusion Theophlline B - Mod of Eli - D11]” was tested. Which “apparent KD of MS2 coat protein” value did it give?
Its value is 13.8 nM.

“AACAACAAGGGAAGGAGCGCGAAUAAUAGACAUGAGGAUCACCCAUGUAUCAUGGGAUUAACGCAGGUAGGUCGCCCACAAACAA [#07 Exclusion - Arginine B]” was tested. Which “apparent KD of MS2 coat protein” value did it give?
Its value is 155 nM.

For “UGUAACAUGAGGAUCACCCAUGUGAGUGAUACCAGAUUAGUAUUAGUCCCUUGGCAGCACAUUGGGCGAGUGUAUAGUCUAUGCG [Same State - Theophylline A (Freestyle 12)]”, which “apparent KD of MS2 coat protein” value is on record?
Its value is 197 nM.

Which “apparent KD of MS2 coat protein” value does the source give for “UGUAUGGACUGAAGGAGCGGGUUGAUAACUUGAGGAUCACCCAGGUAAAAGGCGAAAGCCGCCCAGGUAGGUCGCAGUCCAUACU” here?
The value was 54.9 nM.

“GACCUUAUCUGAAGGAGCGAGGUAAAUAGGGAUGAGCAUACAUGAGGAUCACCCAUGUGGCCUCAGGUAGGUCGCAGAUGAGAUU [Exclusion Arginine B GF27]” was tested. Which “apparent KD of MS2 coat protein” value did it give?
The value was 155 nM.

“UAAUGCAGGUCGGCCGCCACUACACACAUGAGGAUCACCCAUGUAGUUACUGGGUGAAGUGGCAGUAGGACCGGGACCUGCAUAC [Brourdmod04]” was tested. Which “apparent KD of MS2 coat protein” value did it give?
Its value is 578 nM.

How did the “apparent KD of MS2 coat protein” value turn out when “CCUGGACAUGAGGAUCACCCAUGUGAGGAUACCAGAUAUCCUGAUAUCCCUUGGCAGCCUCAUUACUUCGCAUUACCGAAACUUC [theeternabot_sameState_MS2_Theo_A_35]” was run?
The value was 166 nM.

Which “apparent KD of MS2 coat protein” value does the source give for “CGUAUUACGAAAGUAGUACGUAGUGUUCGACGAGGACCGGUACGGCCGCCACUCGGACAUGAGGAUCACCCAUGUAGCGAAAGCU [Tryptophan A 24]” here?
Its value is 301 nM.

Which “apparent KD of MS2 coat protein” value does the source give for “UCGCUCGCCGAAAGGCGAGCGAGUUGCGAUACCAGCCCGGAAACGGGCCCUUGGCAGCGCACAUGAGGAUCACCCAUGUCAUGUU [#1 Exclusion - Theophylline A Attempt #3 (HarryS)]” here?
The value was 25.3 nM.

How did the “apparent KD of MS2 coat protein” value turn out when “CCAUGCAGGUCGGCCGCCACUACACACAUGAGGAUCACCCAUGUAGUUACUGGGUGAAGUGGCAGUAGGACCGGGACCUGCAUAU [Brourdmod11]” was run?
Its value is 330 nM.

With “UUACAACUAAUGGAUACCAGCCGCGUGCUAGUGGUAGCAUACAUGAGGAUCACCCAUGUCGGCCCUUGGCAGCCACGCCCAUGCU [theeternabot_exclusion_MS2_Theo_B_2]” as the sequence, how does the “apparent KD of MS2 coat protein” value read?
Its value is 21.7 nM.
